# Target: LS174T cells
# Test: cell-binding assay, cell-bound Hoc detected by Western blot
# Conditions: After 1.5 h of incubation; parent: est. 1.0; read off a plot
row,Substance,other: Ratio of Hoc/MUC2
1,"Hoc protein of phage ΦPNJ-9 (wild type, recombinant) L184",0.5
2,"Hoc protein of phage ΦPNJ-9 (wild type, recombinant) S183",0.53
3,"Hoc protein of phage ΦPNJ-9 (wild type, recombinant) T185",0.47

# — paper PMC11853027
